In article PMC9482650, “Quantitative fragmentomics allow affinity mapping of interactomes” (Nature Communications, 2022):
Residue numbers refer to the chain shown, from its start.

Target: ARHGEF12, Q9NZN5-2
Assay: holdup assay
Design: key: below the threshold = too weak to quantify, mostly under pKd 3.1 to 4
Details: plain residues with an end cap or a label only (N-terminal biotin on a linker: ado-ado)

ARHGEF12, Q9NZN5-2, sequence (Q9NZN5 other isoform, or with tags, fused parts or gaps): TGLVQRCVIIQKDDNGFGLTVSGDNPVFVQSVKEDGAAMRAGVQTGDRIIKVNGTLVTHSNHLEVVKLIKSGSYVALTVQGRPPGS

Row | Binder | pKd
1 | VISSDDLTEL [CAPN6, Q9Y6Q1] | 4.91

Target: DLG1_2, Q12959
Assay: holdup assay
Design: key: below the threshold = too weak to quantify, mostly under pKd 3.1 to 4
Details: plain residues with an end cap or a label only (N-terminal biotin on a linker: ado-ado)

DLG1_2, Q12959, sequence (Q12959 314-412): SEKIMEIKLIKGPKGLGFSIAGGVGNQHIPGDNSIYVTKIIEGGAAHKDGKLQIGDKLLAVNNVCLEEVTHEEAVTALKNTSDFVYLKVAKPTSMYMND

Row | Binder | pKd
2 | VISSDDLTEL [CAPN6, Q9Y6Q1] | below the threshold

Target: T1, DLG3_1, Q92796
T1 sequence (Q92796 125-227, limits assumed, looked up): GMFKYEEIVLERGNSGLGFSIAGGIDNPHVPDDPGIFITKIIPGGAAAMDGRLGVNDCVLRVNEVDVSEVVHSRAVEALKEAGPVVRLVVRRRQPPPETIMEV
Assay: holdup assay
Design: key: below the threshold = too weak to quantify, mostly under pKd 3.1 to 4
Details: plain residues with an end cap or a label only (N-terminal biotin on a linker: ado-ado)

Row | Binder | pKd
3 | VISSDDLTEL [CAPN6, Q9Y6Q1] | below the threshold

Target: T2, DLG3_3, Q92796
T2 sequence (Q92796 374-475, limits assumed, looked up): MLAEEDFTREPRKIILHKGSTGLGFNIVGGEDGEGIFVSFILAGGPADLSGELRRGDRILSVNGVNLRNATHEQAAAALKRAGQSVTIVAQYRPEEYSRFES
Assay: holdup assay
Design: key: below the threshold = too weak to quantify, mostly under pKd 3.1 to 4
Details: plain residues with an end cap or a label only (N-terminal biotin on a linker: ado-ado)

Row | Binder | pKd
4 | VISSDDLTEL [CAPN6, Q9Y6Q1] | below the threshold

Target: DLG5_1, Q8TDM6
Sequence (Q8TDM6 617-713): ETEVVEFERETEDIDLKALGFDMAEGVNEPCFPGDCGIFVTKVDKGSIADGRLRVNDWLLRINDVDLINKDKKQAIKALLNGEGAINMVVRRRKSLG
Assay: holdup assay
Design: key: below the threshold = too weak to quantify, mostly under pKd 3.1 to 4
Details: plain residues with an end cap or a label only (N-terminal biotin on a linker: ado-ado)

Row | Binder | pKd
5 | VISSDDLTEL [CAPN6, Q9Y6Q1] | below the threshold

Target: T3, DVL3, Q92997
T3 sequence (Q92997 244-331, limits assumed, looked up): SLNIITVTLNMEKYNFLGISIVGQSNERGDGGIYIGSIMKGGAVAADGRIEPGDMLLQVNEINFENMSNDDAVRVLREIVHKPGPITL
Assay: holdup assay
Design: key: below the threshold = too weak to quantify, mostly under pKd 3.1 to 4
Details: plain residues with an end cap or a label only (N-terminal biotin on a linker: ado-ado)

Row | Binder | pKd
6 | VISSDDLTEL [CAPN6, Q9Y6Q1] | below the threshold

Target: FRMPD2_1, Q68DX3
Sequence (Q68DX3 770-861): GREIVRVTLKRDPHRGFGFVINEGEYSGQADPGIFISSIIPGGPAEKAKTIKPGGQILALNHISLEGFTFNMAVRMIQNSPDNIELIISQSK
Assay: holdup assay
Design: key: below the threshold = too weak to quantify, mostly under pKd 3.1 to 4
Details: plain residues with an end cap or a label only (N-terminal biotin on a linker: ado-ado)

Row | Binder | pKd
7 | VISSDDLTEL [CAPN6, Q9Y6Q1] | below the threshold

Target: GOPC, Q9HD26
Assay: holdup assay
Design: key: below the threshold = too weak to quantify, mostly under pKd 3.1 to 4
Details: plain residues with an end cap or a label only (N-terminal biotin on a linker: ado-ado)

Row | Binder | pKd
8 | VISSDDLTEL [CAPN6, Q9Y6Q1] | below the threshold

Target: GORASP2, Q9H8Y8
Assay: holdup assay
Design: key: below the threshold = too weak to quantify, mostly under pKd 3.1 to 4
Details: plain residues with an end cap or a label only (N-terminal biotin on a linker: ado-ado)

Row | Binder | pKd
9 | VISSDDLTEL [CAPN6, Q9Y6Q1] | below the threshold

Target: GRASP, Q7Z6J2
Sequence (Q7Z6J2 96-193): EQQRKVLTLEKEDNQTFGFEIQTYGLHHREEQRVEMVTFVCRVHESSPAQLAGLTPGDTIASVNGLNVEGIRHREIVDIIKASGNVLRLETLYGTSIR
Assay: holdup assay
Design: key: below the threshold = too weak to quantify, mostly under pKd 3.1 to 4
Details: plain residues with an end cap or a label only (N-terminal biotin on a linker: ado-ado)

Row | Binder | pKd
10 | VISSDDLTEL [CAPN6, Q9Y6Q1] | 4.21

Target: GRID2IP_1, A4D2P6
Sequence (A4D2P6 1-87): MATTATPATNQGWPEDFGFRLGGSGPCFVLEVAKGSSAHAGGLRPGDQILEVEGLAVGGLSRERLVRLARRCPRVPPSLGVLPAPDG
Assay: holdup assay
Design: key: below the threshold = too weak to quantify, mostly under pKd 3.1 to 4
Details: plain residues with an end cap or a label only (N-terminal biotin on a linker: ado-ado)

Row | Binder | pKd
11 | VISSDDLTEL [CAPN6, Q9Y6Q1] | below the threshold

Target: Inadl_1, Q8NI35
Sequence (Q8NI35 113-229): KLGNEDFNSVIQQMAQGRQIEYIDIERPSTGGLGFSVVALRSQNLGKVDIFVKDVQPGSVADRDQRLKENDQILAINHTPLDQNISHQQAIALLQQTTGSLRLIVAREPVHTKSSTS
Assay: holdup assay
Design: key: below the threshold = too weak to quantify, mostly under pKd 3.1 to 4
Details: plain residues with an end cap or a label only (N-terminal biotin on a linker: ado-ado)

Row | Binder | pKd
12 | VISSDDLTEL [CAPN6, Q9Y6Q1] | below the threshold

Target: Inadl_10, Q8NI35
Sequence (Q8NI35 1673-1763): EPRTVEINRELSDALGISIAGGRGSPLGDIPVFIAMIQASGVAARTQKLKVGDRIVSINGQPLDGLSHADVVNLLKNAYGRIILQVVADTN
Assay: holdup assay
Design: key: below the threshold = too weak to quantify, mostly under pKd 3.1 to 4
Details: plain residues with an end cap or a label only (N-terminal biotin on a linker: ado-ado)

Row | Binder | pKd
13 | VISSDDLTEL [CAPN6, Q9Y6Q1] | below the threshold

Target: Inadl_5, Q8NI35
Sequence (Q8NI35 673-780): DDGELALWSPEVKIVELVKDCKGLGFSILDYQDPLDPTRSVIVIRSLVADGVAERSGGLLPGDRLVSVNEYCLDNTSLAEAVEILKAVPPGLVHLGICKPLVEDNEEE
Assay: holdup assay
Design: key: below the threshold = too weak to quantify, mostly under pKd 3.1 to 4
Details: plain residues with an end cap or a label only (N-terminal biotin on a linker: ado-ado)

Row | Binder | pKd
14 | VISSDDLTEL [CAPN6, Q9Y6Q1] | below the threshold

Target: Inadl_9, Q8NI35
Sequence (Q8NI35 1530-1615): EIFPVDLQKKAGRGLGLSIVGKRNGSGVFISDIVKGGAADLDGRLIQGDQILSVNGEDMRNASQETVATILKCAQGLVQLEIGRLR
Assay: holdup assay
Design: key: below the threshold = too weak to quantify, mostly under pKd 3.1 to 4
Details: plain residues with an end cap or a label only (N-terminal biotin on a linker: ado-ado)

Row | Binder | pKd
15 | VISSDDLTEL [CAPN6, Q9Y6Q1] | below the threshold

Target: T4, LIN7A, O14910
T4 sequence (O14910 103-200, limits assumed, looked up): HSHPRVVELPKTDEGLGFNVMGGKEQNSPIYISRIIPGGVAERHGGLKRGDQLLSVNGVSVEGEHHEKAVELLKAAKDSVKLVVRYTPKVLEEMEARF
Assay: holdup assay
Design: key: below the threshold = too weak to quantify, mostly under pKd 3.1 to 4
Details: plain residues with an end cap or a label only (N-terminal biotin on a linker: ado-ado)

Row | Binder | pKd
16 | VISSDDLTEL [CAPN6, Q9Y6Q1] | below the threshold

Target: T5, LIN7B, Q9HAP6
T5 sequence (Q9HAP6 88-185, limits assumed, looked up): T4 sequence (O14910 103-200, limits assumed, looked up) with S2A, V20I, I35V, E42D, H65Q, K77Q, D78G, K89R
Assay: holdup assay
Design: key: below the threshold = too weak to quantify, mostly under pKd 3.1 to 4
Details: plain residues with an end cap or a label only (N-terminal biotin on a linker: ado-ado)

Row | Binder | pKd
17 | VISSDDLTEL [CAPN6, Q9Y6Q1] | 3.56

Target: LNX1_1, Q8TBB1
Sequence (Q8TBB1 261-371): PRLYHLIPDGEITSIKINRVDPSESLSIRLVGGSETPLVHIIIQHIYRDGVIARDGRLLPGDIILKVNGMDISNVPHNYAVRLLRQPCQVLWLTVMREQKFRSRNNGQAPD
Assay: holdup assay
Design: key: below the threshold = too weak to quantify, mostly under pKd 3.1 to 4
Details: plain residues with an end cap or a label only (N-terminal biotin on a linker: ado-ado)

Row | Binder | pKd
18 | VISSDDLTEL [CAPN6, Q9Y6Q1] | below the threshold

Target: MAGI2_2, Q86UL8
Sequence (Q86UL8 410-522): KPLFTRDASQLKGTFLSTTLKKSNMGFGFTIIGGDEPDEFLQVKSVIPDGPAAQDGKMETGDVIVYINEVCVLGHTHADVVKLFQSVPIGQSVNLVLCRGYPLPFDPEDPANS
Assay: holdup assay
Design: key: below the threshold = too weak to quantify, mostly under pKd 3.1 to 4
Details: plain residues with an end cap or a label only (N-terminal biotin on a linker: ado-ado)

Row | Binder | pKd
19 | VISSDDLTEL [CAPN6, Q9Y6Q1] | below the threshold

Target: MAGI2_6, Q86UL8
Sequence (Q86UL8 1141-1229): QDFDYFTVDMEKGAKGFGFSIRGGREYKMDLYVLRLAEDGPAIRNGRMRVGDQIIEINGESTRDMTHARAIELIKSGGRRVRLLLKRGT
Assay: holdup assay
Design: key: below the threshold = too weak to quantify, mostly under pKd 3.1 to 4
Details: plain residues with an end cap or a label only (N-terminal biotin on a linker: ado-ado)

Row | Binder | pKd
20 | VISSDDLTEL [CAPN6, Q9Y6Q1] | 3.59

Target: MAST2, Q6P0Q8
Sequence (Q6P0Q8 1099-1202): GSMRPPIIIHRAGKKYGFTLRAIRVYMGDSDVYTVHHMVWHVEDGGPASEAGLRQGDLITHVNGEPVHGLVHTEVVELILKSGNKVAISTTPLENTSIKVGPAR
Assay: holdup assay
Design: key: below the threshold = too weak to quantify, mostly under pKd 3.1 to 4
Details: plain residues with an end cap or a label only (N-terminal biotin on a linker: ado-ado)

Row | Binder | pKd
21 | VISSDDLTEL [CAPN6, Q9Y6Q1] | 5.67

Target: T6, MPDZ_12, O75970
T6 sequence (O75970 1857-1958, limits assumed, looked up): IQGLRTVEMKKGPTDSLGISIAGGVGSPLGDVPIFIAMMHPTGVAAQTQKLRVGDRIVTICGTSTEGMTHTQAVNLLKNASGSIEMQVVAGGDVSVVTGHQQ
Assay: holdup assay
Design: key: below the threshold = too weak to quantify, mostly under pKd 3.1 to 4
Details: plain residues with an end cap or a label only (N-terminal biotin on a linker: ado-ado)

Row | Binder | pKd
22 | VISSDDLTEL [CAPN6, Q9Y6Q1] | below the threshold

Target: NHERF2_2, Q15599
Sequence (Q15599 142-238): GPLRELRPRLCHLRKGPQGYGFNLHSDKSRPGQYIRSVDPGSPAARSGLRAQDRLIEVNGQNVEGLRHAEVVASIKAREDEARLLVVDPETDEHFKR
Assay: holdup assay
Design: key: below the threshold = too weak to quantify, mostly under pKd 3.1 to 4
Details: plain residues with an end cap or a label only (N-terminal biotin on a linker: ado-ado)

Row | Binder | pKd
23 | VISSDDLTEL [CAPN6, Q9Y6Q1] | 4.28

Target: NHERF4_4, Q86UT5
Sequence (Q86UT5 464-550): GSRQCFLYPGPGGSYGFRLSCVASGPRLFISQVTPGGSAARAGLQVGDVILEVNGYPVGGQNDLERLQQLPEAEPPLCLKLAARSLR
Assay: holdup assay
Design: key: below the threshold = too weak to quantify, mostly under pKd 3.1 to 4
Details: plain residues with an end cap or a label only (N-terminal biotin on a linker: ado-ado)

Row | Binder | pKd
24 | VISSDDLTEL [CAPN6, Q9Y6Q1] | below the threshold

Target: T7, PCLO, Q9Y6V0
T7 sequence (Q9Y6V0 4491-4600, limits assumed, looked up): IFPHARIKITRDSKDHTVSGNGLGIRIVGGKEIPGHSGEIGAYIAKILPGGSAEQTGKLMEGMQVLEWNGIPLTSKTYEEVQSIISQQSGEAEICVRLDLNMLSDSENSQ
Assay: holdup assay
Design: key: below the threshold = too weak to quantify, mostly under pKd 3.1 to 4
Details: plain residues with an end cap or a label only (N-terminal biotin on a linker: ado-ado)

Row | Binder | pKd
25 | VISSDDLTEL [CAPN6, Q9Y6Q1] | below the threshold

Target: T8, PTPN13_1, Q12923
T8 sequence (Q12923 1088-1188, limits assumed, looked up): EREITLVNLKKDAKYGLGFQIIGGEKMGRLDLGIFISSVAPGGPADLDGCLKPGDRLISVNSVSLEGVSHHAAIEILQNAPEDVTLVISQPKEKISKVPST
Assay: holdup assay
Design: key: below the threshold = too weak to quantify, mostly under pKd 3.1 to 4
Details: plain residues with an end cap or a label only (N-terminal biotin on a linker: ado-ado)

Row | Binder | pKd
26 | VISSDDLTEL [CAPN6, Q9Y6Q1] | below the threshold

Target: T9, SHANK1, Q9Y566
T9 sequence (Q9Y566 658-767, limits assumed, looked up): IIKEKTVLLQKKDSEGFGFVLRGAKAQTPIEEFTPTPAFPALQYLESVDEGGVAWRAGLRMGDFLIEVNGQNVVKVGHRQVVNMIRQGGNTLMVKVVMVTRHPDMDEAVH
Assay: holdup assay
Design: key: below the threshold = too weak to quantify, mostly under pKd 3.1 to 4
Details: plain residues with an end cap or a label only (N-terminal biotin on a linker: ado-ado)

Row | Binder | pKd
27 | VISSDDLTEL [CAPN6, Q9Y6Q1] | 4.84

Target: T10, TX1BP3, O14907
T10 sequence (O14907 10-122, limits assumed, looked up): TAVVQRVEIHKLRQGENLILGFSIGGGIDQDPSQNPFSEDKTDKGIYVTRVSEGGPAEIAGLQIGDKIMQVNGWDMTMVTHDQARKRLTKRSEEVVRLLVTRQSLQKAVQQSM
Assay: holdup assay
Design: key: below the threshold = too weak to quantify, mostly under pKd 3.1 to 4
Details: plain residues with an end cap or a label only (N-terminal biotin on a linker: ado-ado)

Row | Binder | pKd
28 | VISSDDLTEL [CAPN6, Q9Y6Q1] | below the threshold
